Measured values from publication PMC4787811 (Nucleic Acids Research, 2015).

Key:
[1] = target: the molecule itself; assay: negative-stain EM, single particle 3D reconstruction
[2] = target: T1, E1FL (full-length E1) (bovine papillomavirus (BPV-1), UniProt P03116 1-605); assay: gel filtration (SEC); no nucleotide cofactor; 50 uM E1, E1:DNA 6:1; conditions: protein: recombinant; tags: GST fusion, tag cleaved with thrombin and removed; chain copies: 6; fork: 10 bp duplex, 3' T20 and 5' C10 arms
[3] = target: T1, E1FL (full-length E1); assay: gel filtration (SEC) and negative stain EM (20 A); streptavidin (MTS) and anti-digoxigenin Fab bound to labels; conditions: protein: recombinant; tags: GST fusion, tag cleaved with thrombin and removed; chain copies: 6; label: 5'-biotin on top strand; 5'-digoxigenin on bottom strand; fork: 10 bp duplex, 3' T20 and 5' C10 arms
[4] = target: T1, E1FL (full-length E1); assay: hydroxyl radical footprinting; conditions: protein: recombinant; tags: GST fusion, tag cleaved with thrombin and removed; chain copies: 6; label: 5'-32P on top strand; fork: 30 bp duplex, 3' T20 and 5' C8 arms
[5] = target: T1, E1FL (full-length E1); assay: hydroxyl radical footprinting; 10-fold excess unlabelled T18 competitor; similar protection to top strand; conditions: protein: recombinant; tags: GST fusion, tag cleaved with thrombin and removed; chain copies: 6; label: 3'-32P on bottom strand; fork: 3' T20 and 5' C8 arms; 29 bp as printed before labelling
[6] = target: T1, E1FL (full-length E1); assay: gel filtration (SEC) and negative stain EM (20 A); streptavidin (MTS) bound to biotin; conditions: protein: recombinant; tags: GST fusion, tag cleaved with thrombin and removed; chain copies: 6; label: 5'-biotin on top strand (dsDNA end); fork: 10 bp duplex, 3' T20 and 5' C10 arms
[7] = target: T1, E1FL (full-length E1); assay: gel filtration (SEC) and negative stain EM; no nucleotide cofactor; 50 uM E1, E1:DNA 6:1; conditions: protein: recombinant; tags: GST fusion, tag cleaved with thrombin and removed; chain copies: 6; single strand

B1: full length BPV-1 E1 helicase (enzyme)
chain: MANDKGSNWDSGLGCSYLLTEAECESDKENEEPGAGVELSVESDRYDSQDEDFVDNASVFQGNHLEVFQALEKKAGEEQILNLKRKVLGSSQNSSGSEASETPVKRRKSGAKRRLFAENEANRVLTPLQVQGEGEGRQELNEEQAISHLHLQLVKSKNATVFKLGLFKSLFLCSFHDITRLFKNDKTTNQQWVLAVFGLAEVFFEASFELLKKQCSFLQMQKRSHEGGTCAVYLICFNTAKSRETVRNLMANTLNVREECLMLQPAKIRGLSAALFWFKSSLSPATLKHGALPEWIRAQTTLNESLQTEKFDFGTMVQWAYDHKYAEESKIAYEYALAAGSDSNARAFLATNSQAKHVKDCATMVRHYLRAETQALSMPAYIKARCKLATGEGSWKSILTFFNYQNIELITFINALKLWLKGIPKKNCLAFIGPPNTGKSMLCNSLIHFLGGSVLSFANHKSHFWLASLADTRAALVDDATHACWRYFDTYLRNALDGYPVSIDRKHKAAVQIKAPPLLVTSNIDVQAEDRYLYLHSRVQTFRFEQPCTDESGEQPFNITDADWKSFFVRLWGRLDLIDEEEDSEEDGDSMRTFTCSARNTNAVD
B1 was tested, and the “stoichiometry N” value [1] was 6.

B2: E1 helicase domain (residues 299-605) (domain or fragment)
chain: QTTLNESLQTEKFDFGTMVQWAYDHKYAEESKIAYEYALAAGSDSNARAFLATNSQAKHVKDCATMVRHYLRAETQALSMPAYIKARCKLATGEGSWKSILTFFNYQNIELITFINALKLWLKGIPKKNCLAFIGPPNTGKSMLCNSLIHFLGGSVLSFANHKSHFWLASLADTRAALVDDATHACWRYFDTYLRNALDGYPVSIDRKHKAAVQIKAPPLLVTSNIDVQAEDRYLYLHSRVQTFRFEQPCTDESGEQPFNITDADWKSFFVRLWGRLDLIDEEEDSEEDGDSMRTFTCSARNTNAVD
B2: binds [1].

B3: RFJ 10 bp fork, 3' T20 and 5' C10 (dsDNA)
DNA 1: CCTCAGCGCGTTTTTTTTTTTTTTTTTTTT
DNA 2: CCCCCCCCCCCGCGCTGAGG
B3: binds [2].

B4: RFJ 10 bp fork, 5' dsDNA biotin and 5' ssDNA digoxigenin (dsDNA)
DNA 1: B3 DNA 1
DNA 2: CCCCCCCCCCCGCGCTGAGG
B4: binds [3].

B5: 30 bp fork, 3' T20 and 5' C8, top strand labelled (dsDNA)
DNA 1: GGCTTGTATTTCACACCGCACCTCAGCGCGTTTTTTTTTTTTTTTTTTTT
DNA 2: CCCCCCCCCGCGCTGAGGTGCGGTGTGAAATACAAGCC
B5: binds [4].

B6: 30 bp fork, 3' T20 and 5' C8, bottom strand labelled (dsDNA)
DNA 1: B5 DNA 1
DNA 2: CCCCCCCCCGCGCTGAGGTGCGGTGTGAAATACAAG
B6: binds [5].

B7: RFJ 10 bp fork, 5' dsDNA biotin (dsDNA)
DNA 1: B3 DNA 1
DNA 2: CCCCCCCCCCCGCGCTGAGG
B7: binds [6].

TTTTTTTTTTTTTTTTTTTTTTTTTTTTTT (ssDNA) [ssDNA T30]: binds [7].
